Source: a protein production outcome set (Wang et al. 2014)
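Note: failed if final PepcDB status was selected cloned or expressed and not failed if soluble or beyond.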

Test: label from the status in PepcDB records
In the case of “MNAVGLVAFATVGSLKAIDADFDVLGVAVLGVLTALGGGATRDVLVGSVPAMLQSTTDVGFALAGVVVAVVVARRVGTEVLAHPVVDVPDAVGLAAFAASGALVGVGADVSPFGVVVLGTTTGVGGGLVSDVLLQRVPFVLTEDLYATCAIAGSTVLWVATASGLGATIAAAAGAGVTLAVRLLAIRFEWALPTVRLNAPA”, the protein production is reported as “failed”. For “MNAVHFGAGNIGRGFIGEILAKNGFHITFVDVNETIIQALKERKSYTIELADASHQQINVENVTGLNNMTEPEKVVEAIAEADLVTTAIGPNILPRIAELIAQGIDARAEANCQKPLDIIACENMIGGSTFLAEEVAKYLKNPAYAEQWIGFPDAAVDRIVPLQKHEDPLFVQVEPFCEWVIDDTNRKAKEIQLEGVHYVADLEPYIERKLFSVNTGHATVAYTGALLGYQTIDEAMQDALVVAQLKSVLQETGKLLVAKWNFDEQEHAAYIEKIIQRFQNKYISDAITRVARTPIRKLGAQERFIRPIRELQERNLVSPHLLAMIGIVFNYHDPEDEQSRQLQEMLDQESVDTVIAEVTGIEDPETVKNIKQNVERYARPQVA”, the protein production was “failed”. In the case of “MNCAISGEVPVEPVVSTKSGLLFERRLIERHISDYGKCPVTGEPLTIDDIVPIKTGEIIKPKTLHTASIPGLLGTFQNEWDGLMLSNFALEQQLHTARQELSHALYQHDSACRVIARLKKERDEARQLLAEVERHIPAAPEAVTANAALSNGKRAAVDEELGPDAKKLCPGISAEIITELTDCNAALSQKRKKRQIPQTLASIDTLERFTQLSSHPLHKTNKPGICSMDILHSKDVIATGGVDATAVLFDRPSGQILSTLTGHSKKVTSVKFVGDSDLVLTASADKTVRIWRNPGDGNYACGYTLNDHSAEVRAVTVHPTNKYFVSASLDGTWCFYDLSSGSCLAQVSDDSKNVDYTAAAFHPDGLILGTGTSQSVVKIWDVKSQANVAKFDGHTGEVTAISFSENGYFLATAAEDGVRLWDLRKLRNFKSFLSADANSVEFDPSGSYLGIAASDIKVYQTASVKAEWNLIKTLPDLSGTGKATCVKFGSDAQYVAVGSMDRNYGYLVFLVMKKPTSMMTLRKTREQSVKNSDRTFQMSISSVISLKFLKFCCILQYLQQWGRIS”, the protein production is reported as “failed”. With “MNDFSCPAIAFPSFLNPVIVHLGPIALYWYGLGYVVGILFVWWYAQKLLKKQSLWYANHPPMDKEKIGDFVVWSAISIVVGGRLGQVLVWDPIYYFSHPTAIITIWNGGMSFHGGLIGITIAMIWFARKNNIKIRAMFDIIAIGAPIGIGIVRICNFINQELWGNVTTHPWAVCFPLDPYYLPRHPSQLYEALMEGFLLFVILFILTFAFKALKRPGTVSGIFIIGYAIARSISEIYRAPQEDPEWFSTLFHSTGFTYGMALSLPMLFLGFYLLFQAFKDESTKNGHTQTKN” the protein production was “failed”. In the case of “MNDFSLELPVRTNKPRETGQSILIDNGYPLQFFKDAIAGASDYIDFVKFGWGTSLLTKDLEEKISTLKEHDITFFFGGTLFEKYVSQKKVNEFHRYCTYFGCEYIEISNGTLPMTNKEKAAYIADFSDEFLVLSEVGSKDAELASRQSSEEWLEYIVEDMEAGAEKVITEARESGTGGICSSSGDVRFQIVDDIISSDIDINRLIFEAPNKTLQQGFIQKIGPNVNLANIPFHDAIALETLRLGLRSDTFFL”, the protein production is reported as “not failed”. In the case of “MNDIAREPVLGGAPAPAVPQPLRVRFCGSGSEYFRIWIVNLLLTIVTLGIYSAWAKVRTLQYFYRNTQLGGASFDYHGSPTAILKGRAIIFVLALAFNLSGQVSPVLTLLLLAAIGLVFPWLLVRSLRFRMANSSYRGLRFAFTGKDAQAYKVFLLWPVLTVFTFNLLAPFAHQRFKQYQHRNTRFGTTSFDFSATAGQFYGVYLRTFGMAILAVMAVGVVVVLAGVSAAAGAASGGRAIAVSLMVLAMYAAMLFLGPYFLARLQNVVWNHTTLGAHRFQSQVSAGKLFWIFISNAALLIVTLGLFTPFARVRSARYKLESVTMLAAGSLDTFVAGESTRVGALGDAAVDWYDIDIAL”, the protein production is reported as “failed”.
